Test [1] has as its target human LAIR-1 fused to the zeta chain of CD3, on UT-140 reporter cells (UniProt P20963 31-164). The experiment in a line: cell binding (flow cytometry). For orientation: A flow cytometer gives signals particle by particle.
The target of test [2] is T1, LAIR-1 (human; form used for the KD not stated) (UniProt Q6GTX8 22-165).
T1 chain: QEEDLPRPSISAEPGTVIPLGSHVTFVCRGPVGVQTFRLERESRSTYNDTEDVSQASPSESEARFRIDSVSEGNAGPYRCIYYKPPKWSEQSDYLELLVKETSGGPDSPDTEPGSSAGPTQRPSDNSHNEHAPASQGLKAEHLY
The experiment in a line: kinetic binding; replicate 3.

In test [3] the target is T1, LAIR-1 (human; form used for the KD not …). The experiment in a line: kinetic binding; replicate 1.
The target is the same in test [4]. The experiment in a line: kinetic binding; replicate 2.

Numbering of substitutions follows the chain as printed.

B1: hLAIR-1 mAb-Parent (antibody, V domains shown)
VH: EVQLVESGGGLVQPKGSLKLSCAASGFTFNTNAMYWVRQAPGKGLEWVARIRSKSSNYATYYADSVKDRFTISRDDSQSMLYLQMNNLKTEDTARYYCVRGGSGFFAYWGQGTLVTVSA
VL: DIQMAQSSSSFSVSLGDRVTITCKASEDIYIRLAWYQQKPGNAPRLLISTATSLETGVPSRFSGSGSGKDYTLSITSLQTEDVATYYCQQYWSTPYTFGGGTRLEIK
Usually EC50 stands for the concentration giving half of the maximal effect. Low readings indicate an effect from little substance, high ones a need for much substance. For the molecule B1, the concentration for a half-maximal effect (EC50) in test [1] stood at 0.15 nM.

B2: h11B3 LAIR-1 mAb, Anti-LAIR-1 Variant 6 (h11B3 VL-2 / h11B3 VH-3) (antibody, V domains shown)
VH: B1 VH with K15G, A49G, D64A, D68G, Q78K, S79N, M80T, N87S, R95V, A119S
VL: DIQMTQSPSSLSASLGDRVTITCKASEDIYIRLAWYQQKPGKAPRLLISTATSLETGVPSRFSGSGSGTDYTFTISSLQPEDIATYYCQQYWSTPYTFGGGTRLEIK
A word on the Kd: it is the free concentration of one partner at which half of the binding sites on the other are occupied at equilibrium, for simple one-to-one binding. Read a high Kd as lower affinity. In the case of B2, the Kd in test [2] came to 2.34 nM; in test [3] it was 2.38 nM.

B3: 11B3 hG1 (antibody, V domains shown)
VH: B1 VH
VL: DIQMAQSSSSFSVSLGDRVTITCKASEDIYIRLAWYQQKPGNAPRLLISTATSLETGVPSRFSGSGSGKDYTLSITSLQTEDVATYYCQQYWSTPYTFGGGTRLEIKR
B3: the Kd in test [2] turned out to be 1.95 nM; in test [4] it was 1.16 nM; in test [3], 1.25 nM.

The values are drawn from patent US20240352121A1 (published 2024).
